# T1: hTcf-4 (endogenous, in nuclear extracts or cells) (human)
# T1 chain: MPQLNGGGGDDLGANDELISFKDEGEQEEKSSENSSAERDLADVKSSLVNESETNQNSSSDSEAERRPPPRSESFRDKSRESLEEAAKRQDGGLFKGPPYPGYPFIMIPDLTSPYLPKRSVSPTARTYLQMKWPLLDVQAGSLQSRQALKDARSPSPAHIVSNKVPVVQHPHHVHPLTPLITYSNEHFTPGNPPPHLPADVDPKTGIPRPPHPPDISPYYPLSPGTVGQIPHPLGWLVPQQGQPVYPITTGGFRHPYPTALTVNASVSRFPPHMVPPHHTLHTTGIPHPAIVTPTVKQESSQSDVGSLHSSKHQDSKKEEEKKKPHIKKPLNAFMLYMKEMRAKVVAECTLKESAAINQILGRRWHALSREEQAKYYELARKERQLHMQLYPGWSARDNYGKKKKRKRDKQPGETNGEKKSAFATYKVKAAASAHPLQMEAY
# Key:
# [1] = target: Myc-tagged hTcf-4 (epitope-tagged hTcf-4 in expression vector pCDNA) (human)
# [2] = target: T1, hTcf-4 (endogenous, in nuclear extracts …); experiment: gel retardation of nuclear extracts of HT29-APC1 cells after 20 h Zn++ induction of APC
# Method: Figure 2C: Figure 4: FIG. 4. Constitutive presence of β-catenin-hTcf-4 complexes in APC^{-/-} cells. Gel retardation assays were performed on nuclear extracts from the indicated cell lines before and after a 20-hour exposure to Zn^++. Samples in lanes 1, 4, 7, 10 were incubated under standard conditions. To the samples in lanes 2, 5, 8, 11, 0.25 μg, anti β-catenin was added. To the samples in lanes 3, 6, 9, 12, 0.25 μg of a control (human CD4) antibody was added. N.S., nonspecific band also observed with mutant (nonbinding) probe (lane Mt).
# Gel retardation assays were performed as described elsewhere (7). Extracts were prepared from intact nuclei that were washed four times to avoid contamination with cytoplasmic β-catenin. As the optimal Tcf/Lef probe, we used a double-stranded 15-mer […] (SEQ ID NO: 12); the control probe was […] (SEQ ID NO:13). (All oligonudeotides were from Isogene, Holland). The β-catenin antibody was purchased from Transduction Laboratories (Lexington, Ky.). A typical binding reaction contained 3 μg nuclear protein, 0.1 ng radiolabeled probe, 100 ng of dIdC, in 25 μl of binding buffer (60 mm KCl, 1 mM EDTA, 1 mM DTT, 10% glycerol). Samples were incubated for 20 min at room temperature, antibody was added, and the samples incubated 20 min further.
CRT reporter activity in 293 cells cotransfected with a Tcf-4 expression vector [1],decrease of the complex relative to uncomplexed hTcf-4 after Zn++ induction of APC [2],Molecule
6 fold,,β-Cat S33Y (mutant β-catenin from SW48) (from UniProt P35222)
6 fold,,"β-Cat Δ45 (mutant β-catenin from HCT116, deletion of Ser-45) (from UniProt P35222)"
,6 fold,"β-catenin (endogenous, human colorectal cancer cell lines HT29, SW480) (other) ATQADLMELDMAMEPDRKAAVSHWQQQSYLDSGIHSGATTTAPSLSGKGNPEEEDVDTSQVLYEWEQGFSQSFTQEQVADIDGQYAMTRAQRVRAAMFPETLDEGMQIPSTQFDAAHPTNVQRLAEPSQMLKHAVVNLINYQDDAELATRAIPELTKLLNDEDQVVVNKAAVMVHQLSKKEASRHAIMRSPQMVSAIVRTMQNTNDVETARCTAGTLHNLSHHREGLLAIFKSGGIPALVKMLGSPVDSVLFYAITTLHNLLLHQEGAKMAVRLAGGLQKMVALLNKTNVKFLAITTDCLQILAYGNQESKLIILASGGPQALVNIMRTYTYEKLLWTTSRVLKVLSVCSSNKPAIVEAGGMQALGLHLTDPSQRLVQNCLWTLRNLSDAATKQEGMEGLLGTLVQLLGSDDINVVTCAAGILSNLTCNNYKNKMMVCQVGGIEALVRTVLRAGDREDITEPAICALRHLTSRHQEAEMAQNAVRLHYGLPVVVKLLHPPSHWPLIKATVGLIRNLALCPANHAPLREQGAIPRLVQLLVRAHQDTQRRTSMGGTQQQFVEGVRMEEIVEGCTGALHILARDVHNRIVIRGLNTIPLFVQLLYSPIENIQRVAAGVLCELAQDKEAAEAIEAEGATAPLTELLHSRNEGVATYAAAVLFRMSEDKPQDYKKRLSVELTSSLFRTEPMAWNETADLGLDIGAQGEPLGYRQDDPSYRSFHSGGYGQDALGMDPMMEHEMGGHHPGADYPVDGLPDLGHAQDLMDGLPPGDSNQLAWFDTDL"

# Source: US6140052, “cMYC is regulated by Tcf-4” (The Johns Hopkins University, dated 1998)
